Results on 4 molecules are retold here after publication doi:10.1101/2024.10.21.619555 (bioRxiv, 2024).

The data set “single-receptor tracking” deals with the molecule itself. Kind of data set: single-receptor tracking.
Data set [1] concerns the molecule itself. In words: single-molecule photobleaching.
The data set “SEC” deals with the molecule itself. In words: SEC. (SEC sorts molecules by how far they enter the pores of the column.)
A further data set concerns the target recombinant RBP4 (UniProt P02753 19-201). Kind of data set: cross-linking.
Data set [2] deals with the molecule itself. In words: single-molecule dual-color photobleaching.

B1: quantum dot-labeled DR6, wild type (receptor, UniProt O75509 42-655, looked up)
chain: QPEQKASNLIGTYRHVDRATGQVLTCDKCPAGTYVSEHCTNTSLRVCSSCPVGTFTRHENGIEKCHDCSQPCPWPMIEKLPCAALTDRECTCPPGMFQSNATCAPHTVCPVGWGVRKKGTETEDVRCKQCARGTFSDVPSSVMKCKAYTDCLSQNLVVIKPGTKETDNVCGTLPSFSSSTSPSPGTAIFPRPEHMETHEVPSSTYVPKGMNSTESNSSASVRPKVLSSIQEGTVPDNTSSARGKEDVNKTLPNLQVVNHQQGPHHRHILKLLPSMEATGGEKSSTPIKGPKRGHPRQNLHKHFDINEHLPWMIVLFLLLVLVVIVVCSIRKSSRTLKKGPRQDPSAIVEKAGLKKSMTPTQNREKWIYYCNGHGIDILKLVAAQVGSQWKDIYQFLCNASEREVAAFSNGYTADHERAYAALQHWTIRGPEASLAQLISALRQHRRNDVVEKIRGLMEDTTQLETDKLALPMSPSPLSPSPIPSPNAKLENSALLTVEPSPQDKNKGFFVDESEPLLRCDSTSSGSSALSRNGSFITKEKKDTVLRQVRLDPCDLQPIFDDMLHFLNPEELRVIEEIPQAEDKLDRLFEIIGVKSQEASQTLLDSVYSHLPDLL
modifications: quantum dot label
The stoichiometry N is a count of units in the complex or per binding partner. As to B1, in “single-receptor tracking”, the “fold lower turnover into the monomeric state than DR6 ΔECD” value was 2.1 fold and the “stoichiometry N” value amounted to 2.

B2: SNAP-DR6 (receptor, UniProt O75509 42-655, looked up)
chain: QPEQKASNLIGTYRHVDRATGQVLTCDKCPAGTYVSEHCTNTSLRVCSSCPVGTFTRHENGIEKCHDCSQPCPWPMIEKLPCAALTDRECTCPPGMFQSNATCAPHTVCPVGWGVRKKGTETEDVRCKQCARGTFSDVPSSVMKCKAYTDCLSQNLVVIKPGTKETDNVCGTLPSFSSSTSPSPGTAIFPRPEHMETHEVPSSTYVPKGMNSTESNSSASVRPKVLSSIQEGTVPDNTSSARGKEDVNKTLPNLQVVNHQQGPHHRHILKLLPSMEATGGEKSSTPIKGPKRGHPRQNLHKHFDINEHLPWMIVLFLLLVLVVIVVCSIRKSSRTLKKGPRQDPSAIVEKAGLKKSMTPTQNREKWIYYCNGHGIDILKLVAAQVGSQWKDIYQFLCNASEREVAAFSNGYTADHERAYAALQHWTIRGPEASLAQLISALRQHRRNDVVEKIRGLMEDTTQLETDKLALPMSPSPLSPSPIPSPNAKLENSALLTVEPSPQDKNKGFFVDESEPLLRCDSTSSGSSALSRNGSFITKEKKDTVLRQVRLDPCDLQPIFDDMLHFLNPEELRVIEEIPQAEDKLDRLFEIIGVKSQEASQTLLDSVYSHLPDLL
modifications: SNAP-Surface Alexa Fluor 488 label
As for B2, the “stoichiometry N” value in data set [1] is 2.

B3: recombinant DR6 ECD (domain or fragment, UniProt O75509 42-349, looked up)
chain: QPEQKASNLIGTYRHVDRATGQVLTCDKCPAGTYVSEHCTNTSLRVCSSCPVGTFTRHENGIEKCHDCSQPCPWPMIEKLPCAALTDRECTCPPGMFQSNATCAPHTVCPVGWGVRKKGTETEDVRCKQCARGTFSDVPSSVMKCKAYTDCLSQNLVVIKPGTKETDNVCGTLPSFSSSTSPSPGTAIFPRPEHMETHEVPSSTYVPKGMNSTESNSSASVRPKVLSSIQEGTVPDNTSSARGKEDVNKTLPNLQVVNHQQGPHHRHILKLLPSMEATGGEKSSTPIKGPKRGHPRQNLHKHFDINEH
Regarding B3, the binding result in the data set “SEC” was “binds”. In addition, the “stoichiometry N” value with recombinant RBP4 was 1.

B4: DR6 ECD-Halo (domain or fragment, UniProt O75509 42-349, looked up)
chain: QPEQKASNLIGTYRHVDRATGQVLTCDKCPAGTYVSEHCTNTSLRVCSSCPVGTFTRHENGIEKCHDCSQPCPWPMIEKLPCAALTDRECTCPPGMFQSNATCAPHTVCPVGWGVRKKGTETEDVRCKQCARGTFSDVPSSVMKCKAYTDCLSQNLVVIKPGTKETDNVCGTLPSFSSSTSPSPGTAIFPRPEHMETHEVPSSTYVPKGMNSTESNSSASVRPKVLSSIQEGTVPDNTSSARGKEDVNKTLPNLQVVNHQQGPHHRHILKLLPSMEATGGEKSSTPIKGPKRGHPRQNLHKHFDINEH
modifications: Alexa Fluor 660 label
Turning to B4, in data set [2], the “stoichiometry N” value came to 2.
